In US20240409635A1 (VIBRANT PHARMA, published 2024):

T1: recombinant human tumor antigen CEACAM-6 (ACRO systems, CE6-H5223) (human, UniProt P40199 35-320)
T1 construct: Bought
T1 sequence (looked up): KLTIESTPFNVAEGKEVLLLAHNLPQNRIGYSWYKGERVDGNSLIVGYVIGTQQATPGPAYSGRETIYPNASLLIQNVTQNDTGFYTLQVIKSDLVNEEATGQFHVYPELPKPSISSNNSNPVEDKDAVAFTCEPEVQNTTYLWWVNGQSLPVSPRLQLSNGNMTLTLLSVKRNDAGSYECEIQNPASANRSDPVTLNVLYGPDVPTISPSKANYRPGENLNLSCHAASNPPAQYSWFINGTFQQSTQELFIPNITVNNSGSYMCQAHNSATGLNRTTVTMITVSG


Assays:
[1] = molecular target: epidermal growth factor receptor (EGFR) on human tumor cells (human, UniProt P00533 25-1210); experiment: cell-based or functional assay
[2] = molecular target: T2, keyhole limpet haemocyanin; experiment: ELISA, KLH coated, 100 nM antibody
T2 construct: Bought reagent, coated at 5 ug/mL; also called KLH
Description: (§1) The experimental steps are as follows [0420] […] (4) 50 μl anti-human IgG-HRP conjugate (Sigma, AP113P, 1:8000 dilution) was added to each well; the plate was incubated for 1 h at room temperature and washed 6 times with 0.05% PBST; [0424] (5) 50 μl of TMB chromogenic solution (Biopanda, TMB-S-001) was added to each well and incubated at room temperature for 10-15 minutes for color development; [0425] (6) 50 μl of 1M HCl was added to each well to stop the color development, and the absorbance at 450 nm was measured using a microplate reader (Biotek, SYNERGY LX); Data analysis: If the ratio between the absorbance of the antibody and the absorbance of the blank control PBS is ≥3, there is too much non-specific binding.

Insulin = molecular target: T3, Insulin; experiment: ELISA, insulin coated, 100 nM antibody
T3 construct: Bought reagent, coated at 5 ug/mL
Description: as §1

[3] = molecular target: T4, recombinant human protein CD3ε/δ (ACRO systems, CDD-H52W1) (human, UniProt P07766 23-126; P04234 22-105); experiment: BLI, antibody on AHC sensor, antigen as analyte
T4 construct: Bought heterodimer
T4 sequence (P07766 23-126, stated change not applied, chain 1 of 2): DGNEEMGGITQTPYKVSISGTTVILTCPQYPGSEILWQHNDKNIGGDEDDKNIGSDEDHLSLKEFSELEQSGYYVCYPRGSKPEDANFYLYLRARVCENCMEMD
T4 sequence (P04234 22-105, stated change not applied, chain 2 of 2): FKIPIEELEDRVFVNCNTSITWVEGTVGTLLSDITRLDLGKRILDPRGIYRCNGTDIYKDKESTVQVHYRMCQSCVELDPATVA
Description: (§2) Antibodies were first captured onto an anti-human IgG Fc coated AHC biosensor (Anti-hIgG Fc, Sartorius, 18-5060). Antibodies were diluted to 5 μg/mL and 1.5 nm protein was coupled to the AHC sensor surface in 0.02% PBST.
(§3) After the sensor captures the antibodies, it binds and dissociates with different concentrations of analytes to obtain the KD value of the interaction. The experimental parameters are as follows: Baseline1: 60 s, Loading: 240 s, Baseline2: 180 s, Association: 240 s, Dissociation: 600 s, High sensitivity kinetics: 2 Hz. Kinetic constants were derived based on the rate equation for 1:1 Langmuir binding to obtain equilibrium dissociation constants (KD). The Data Analysis HT 12 software (Sartorius, 50-5029) was used to simultaneously fit binding and dissociation curves to calculate Kₒₙ and Koff. The affinity KD was calculated based on the below formula: KD=Koff/Kₒₙ.

[4] = molecular target: T1, recombinant human tumor antigen …; experiment: BLI, antibody on AHC sensor, antigen as analyte
Description: as §2, §3

[5] = molecular target: T5, recombinant human EGFR protein (ACRO systems, EGR-H5222) (human, UniProt P00533 25-645); experiment: BLI, antibody on AHC sensor, antigen as analyte
T5 construct: Bought
Description: as §2, §3

Row | Binder | absorbance ratio to PBS blank [2] | absorbance ratio to PBS blank (Insulin) | Kd [3] [pM] | koff [3] [s⁻¹] | kon [3] [M⁻¹ s⁻¹] | koff [4] [s⁻¹] | kon [4] [M⁻¹ s⁻¹] | Kd [5] [pM] | koff [5] [s⁻¹] | kon [5] [M⁻¹ s⁻¹] | Kd [4] [pM] | T cell mediated killing EC50, H-1975 (EGFR+c-Met+) [1] [pM] | T cell mediated killing EC50, HT-29 (EGFR+c-Met+) [1] [pM] | T cell mediated killing EC50, OSRC2 (EGFR+++c-Met+) [1] [pM] | T cell mediated killing EC50, UT33A (EGFR+++c-Met+++) [1] [pM] | T cell mediated killing EC50, UT44 (EGFR+++c-Met++) [1] [pM]
1 | EGFR-BsAb bispecific control antibody (anti-CD3 TA1 Fab and EGFR VHH) (bispecific antibody, human IgG4 S228P, kappa, F234A L235A) heavy: EVKLLESGGGLVQPKGSLKLSCAASGFTFNTYAMNWVRQAPGKGLEWVARIRSKYNNYATYYADSVKDRFTISRDDSQSILYLQMNNLKTEDTAMYYCVRHGNFGNSYVSWFAYWGQGTLVTVSSASTKGPSVFPLAPCSRSTSESTAALGCLVKDYFPEPVTVSWNSGALTSGVHTFPAVLQSSGLYSLSSVVTVPSSSLGTKTYTCNVDHKPSNTKVDKRVESKYGPPCPPCPAPEAAGGPSVFLFPPKPKDTLMISRTPEVTCVVVDVSQEDPEVQFNWYVDGVEVHNAKTKPREEQFNSTYRVVSVLTVLHQDWLNGKEYKCKVSNKGLPSSIEKTISKAKGQPREPQVYTLPPCQEEMTKNQVSLWCLVKGFYPSDIAVEWESNGQPENNYKTTPPVLDSDGSFFLYSRLTVDKSRWQEGNVFSCSVMHEALHNHYTQKSLSLSL QVQLQESGGGSVQAGGSLKLSCAASGRGFSRYAMGWFRQAPGQDREFVATISWTNSTDYADSVKGRFAISRDNAKNTAYLQMNSLKPEDTAVYYCAADKWASSTRSIDYDYWGQGIQVTVSSESKYGPPCPPCPAPEAAGGPSVFLFPPKPKDTLMISRTPEVTCVVVDVSQEDPEVQFNWYVDGVEVHNAKTKPREEQFNSTYRVVSVLTVLHQDWLNGKEYKCKVSNKGLPSSIEKTISKAKGQPREPQVCTLPPSQEEMTKNQVSLSCAVKGFYPSDIAVEWESNGQPENNYKTTPPVLDSDGSFFLVSRLTVDKSRWQEGNVFSCSVMHEALHNRFTQKSLSLSL light: QAVVTQESALTTSPGETVTLTCRSSTGAVTTSNYANWVQEKPDHLFTGLIGGTNKRAPGVPARFSGSLIGDKAALTITGAQTEDEAIYFCALWYSNLWVFGGGTKVEIKRTVAAPSVFIFPPSDEQLKSGTASVVCLLNNFYPREAKVQWKVDNALQSGNSQESVTEQDSKDSTYSLSSTLTLSKADYEKHKVYACEVTHQGLSSPVTKSFNRGEC |  |  |  |  |  |  |  |  |  |  |  | 0.32 | 0.387 | 2.45 | 0.398 | 0.154
2 | CEA-BsAb bispecific control antibody (TA1-Fab anti-CD3 x CEA VHH) (bispecific antibody, human IgG4 S228P, kappa, F234A L235A, IgG4) heavy: EVKLLESGGGLVQPKGSLKLSCAASGFTFNTYAMNWVRQAPGKGLEWVARIRSKYNNYATYYADSVKDRFTISRDDSQSILYLQMNNLKTEDTAMYYCVRHGNFGNSYVSWFAYWGQGTLVTVSSASTKGPSVFPLAPCSRSTSESTAALGCLVKDYFPEPVTVSWNSGALTSGVHTFPAVLQSSGLYSLSSVVTVPSSSLGTKTYTCNVDHKPSNTKVDKRVESKYGPPCPPCPAPEAAGGPSVFLFPPKPKDTLMISRTPEVTCVVVDVSQEDPEVQFNWYVDGVEVHNAKTKPREEQFNSTYRVVSVLTVLHQDWLNGKEYKCKVSNKGLPSSIEKTISKAKGQPREPQVYTLPPCQEEMTKNQVSLWCLVKGFYPSDIAVEWESNGQPENNYKTTPPVLDSDGSFFLYSRLTVDKSRWQEGNVFSCSVMHEALHNHYTQKSLSLSL EVQLVESGGGFVQAGESLTLSCTSSTLTFTPYRMAWYRQAPGKQRDLVADISSGDGRTTNYADFAKGRFTISRDNIKNTVFLRMTNLKPEDTAVYYCNTFVSFVGIARSWGQGTQVTVSSESKYGPPCPPCPAPEAAGGPSVFLFPPKPKDTLMISRTPEVTCVVVDVSQEDPEVQFNWYVDGVEVHNAKTKPREEQFNSTYRVVSVLTVLHQDWLNGKEYKCKVSNKGLPSSIEKTISKAKGQPREPQVCTLPPSQEEMTKNQVSLSCAVKGFYPSDIAVEWESNGQPENNYKTTPPVLDSDGSFFLVSRLTVDKSRWQEGNVFSCSVMHEALHNRFTQKSLSLSL light: QAVVTQESALTTSPGETVTLTCRSSTGAVTTSNYANWVQEKPDHLFTGLIGGTNKRAPGVPARFSGSLIGDKAALTITGAQTEDEAIYFCALWYSNLWVFGGGTKVEIKRTVAAPSVFIFPPSDEQLKSGTASVVCLLNNFYPREAKVQWKVDNALQSGNSQESVTEQDSKDSTYSLSSTLTLSKADYEKHKVYACEVTHQGLSSPVTKSFNRGEC | 2.16 | 1.24 |  |  |  |  |  |  |  |  |  |  |  |  |  | 

The next lines start with results.

Row | absorbance ratio to PBS blank [2] | absorbance ratio to PBS blank (Insulin) | Kd [3] [pM] | koff [3] [s⁻¹] | kon [3] [M⁻¹ s⁻¹] | koff [4] [s⁻¹] | kon [4] [M⁻¹ s⁻¹] | Kd [5] [pM] | koff [5] [s⁻¹] | kon [5] [M⁻¹ s⁻¹] | Kd [4] [pM] | Binder | T cell mediated killing EC50, H-1975 (EGFR+c-Met+) [1] [pM] | T cell mediated killing EC50, HT-29 (EGFR+c-Met+) [1] [pM] | T cell mediated killing EC50, OSRC2 (EGFR+++c-Met+) [1] [pM] | T cell mediated killing EC50, UT33A (EGFR+++c-Met+++) [1] [pM] | T cell mediated killing EC50, UT44 (EGFR+++c-Met++) [1] [pM]
3 |  |  | 6430 | 0.00338 | 526000 | 0.000247 | 222000 | 4430 | 0.00519 | 1.17e+06 |  | EGFR-BsAb (CD3 TA1-Fab x EGFR VHH bispecific control antibody) (bispecific antibody, human IgG4 S228P, kappa, F234A L235A, also called anti-EGFR-BsAb) heavy: EVKLLESGGGLVQPKGSLKLSCAASGFTFNTYAMNWVRQAPGKGLEWVARIRSKYNNYATYYADSVKDRFTISRDDSQSILYLQMNNLKTEDTAMYYCVRHGNFGNSYVSWFAYWGQGTLVTVSSASTKGPSVFPLAPCSRSTSESTAALGCLVKDYFPEPVTVSWNSGALTSGVHTFPAVLQSSGLYSLSSVVTVPSSSLGTKTYTCNVDHKPSNTKVDKRVESKYGPPCPPCPAPEAAGGPSVFLFPPKPKDTLMISRTPEVTCVVVDVSQEDPEVQFNWYVDGVEVHNAKTKPREEQFNSTYRVVSVLTVLHQDWLNGKEYKCKVSNKGLPSSIEKTISKAKGQPREPQVYTLPPCQEEMTKNQVSLWCLVKGFYPSDIAVEWESNGQPENNYKTTPPVLDSDGSFFLYSRLTVDKSRWQEGNVFSCSVMHEALHNHYTQKSLSLSL QVQLQESGGGSVQAGGSLKLSCAASGRGFSRYAMGWFRQAPGQDREFVATISWTNSTDYADSVKGRFAISRDNAKNTAYLQMNSLKPEDTAVYYCAADKWASSTRSIDYDYWGQGIQVTVSSESKYGPPCPPCPAPEAAGGPSVFLFPPKPKDTLMISRTPEVTCVVVDVSQEDPEVQFNWYVDGVEVHNAKTKPREEQFNSTYRVVSVLTVLHQDWLNGKEYKCKVSNKGLPSSIEKTISKAKGQPREPQVCTLPPSQEEMTKNQVSLSCAVKGFYPSDIAVEWESNGQPENNYKTTPPVLDSDGSFFLVSRLTVDKSRWQEGNVFSCSVMHEALHNRFTQKSLSLSL light: QAVVTQESALTTSPGETVTLTCRSSTGAVTTSNYANWVQEKPDHLFTGLIGGTNKRAPGVPARFSGSLIGDKAALTITGAQTEDEAIYFCALWYSNLWVFGGGTKVEIKRTVAAPSVFIFPPSDEQLKSGTASVVCLLNNFYPREAKVQWKVDNALQSGNSQESVTEQDSKDSTYSLSSTLTLSKADYEKHKVYACEVTHQGLSSPVTKSFNRGEC |  |  |  |  | 
4 |  |  | 5730 | 0.00421 | 734000 | 0.000336 | 206000 |  | 0.00143 | 570000 | 1640 | CEACAM6-BsAb (CD3 TA1-Fab x CEA-CAM6 VHH bispecific control antibody) (bispecific antibody, human IgG4 S228P, kappa, F234A L235A, also called anti-CEA-CAM6-BsAb) heavy: EVKLLESGGGLVQPKGSLKLSCAASGFTFNTYAMNWVRQAPGKGLEWVARIRSKYNNYATYYADSVKDRFTISRDDSQSILYLQMNNLKTEDTAMYYCVRHGNFGNSYVSWFAYWGQGTLVTVSSASTKGPSVFPLAPCSRSTSESTAALGCLVKDYFPEPVTVSWNSGALTSGVHTFPAVLQSSGLYSLSSVVTVPSSSLGTKTYTCNVDHKPSNTKVDKRVESKYGPPCPPCPAPEAAGGPSVFLFPPKPKDTLMISRTPEVTCVVVDVSQEDPEVQFNWYVDGVEVHNAKTKPREEQFNSTYRVVSVLTVLHQDWLNGKEYKCKVSNKGLPSSIEKTISKAKGQPREPQVYTLPPCQEEMTKNQVSLWCLVKGFYPSDIAVEWESNGQPENNYKTTPPVLDSDGSFFLYSRLTVDKSRWQEGNVFSCSVMHEALHNHYTQKSLSLSL QVKLEESGGGLVQAGGSLRLSCRTSGRTNSVYTMGWFRQAPGKEREFVAQIMWGAGTNTHYADSVKGRFTISRDSAESTVYLQMNSLKPEDTAVYYCAANRGIPIAGRQYDYWGQGTQVTVSSESKYGPPCPPCPAPEAAGGPSVFLFPPKPKDTLMISRTPEVTCVVVDVSQEDPEVQFNWYVDGVEVHNAKTKPREEQFNSTYRVVSVLTVLHQDWLNGKEYKCKVSNKGLPSSIEKTISKAKGQPREPQVCTLPPSQEEMTKNQVSLSCAVKGFYPSDIAVEWESNGQPENNYKTTPPVLDSDGSFFLVSRLTVDKSRWQEGNVFSCSVMHEALHNRFTQKSLSLSL light: QAVVTQESALTTSPGETVTLTCRSSTGAVTTSNYANWVQEKPDHLFTGLIGGTNKRAPGVPARFSGSLIGDKAALTITGAQTEDEAIYFCALWYSNLWVFGGGTKVEIKRTVAAPSVFIFPPSDEQLKSGTASVVCLLNNFYPREAKVQWKVDNALQSGNSQESVTEQDSKDSTYSLSSTLTLSKADYEKHKVYACEVTHQGLSSPVTKSFNRGEC |  |  |  |  | 
